Results from the supplement of paper PMC10065799, “High-throughput profiling of sequence recognition by tyrosine kinases and SH2 domains using bacterial peptide display” (eLife, 2023).

Tests used:
[1] = test system: AncSZ; experiment: phosphorylation enrichment, bacterial display (enrichment ratio); higher = better substrate or ligand; peptides without Tyr show the background
[2] = biological target: EPHB1 (UniProt P54762); experiment: as above
[3] = biological target: EPHB2 (UniProt P29323); experiment: as above
[4] = biological target: FGFR1 (UniProt P11362); experiment: as above
[5] = biological target: FGFR3 (UniProt P22607); experiment: as above
[6] = test system: Fer (mouse); experiment: as above
[7] = biological target: Fes (UniProt P07332); experiment: as above
Chain of Fes (P07332 whole entry, looked up): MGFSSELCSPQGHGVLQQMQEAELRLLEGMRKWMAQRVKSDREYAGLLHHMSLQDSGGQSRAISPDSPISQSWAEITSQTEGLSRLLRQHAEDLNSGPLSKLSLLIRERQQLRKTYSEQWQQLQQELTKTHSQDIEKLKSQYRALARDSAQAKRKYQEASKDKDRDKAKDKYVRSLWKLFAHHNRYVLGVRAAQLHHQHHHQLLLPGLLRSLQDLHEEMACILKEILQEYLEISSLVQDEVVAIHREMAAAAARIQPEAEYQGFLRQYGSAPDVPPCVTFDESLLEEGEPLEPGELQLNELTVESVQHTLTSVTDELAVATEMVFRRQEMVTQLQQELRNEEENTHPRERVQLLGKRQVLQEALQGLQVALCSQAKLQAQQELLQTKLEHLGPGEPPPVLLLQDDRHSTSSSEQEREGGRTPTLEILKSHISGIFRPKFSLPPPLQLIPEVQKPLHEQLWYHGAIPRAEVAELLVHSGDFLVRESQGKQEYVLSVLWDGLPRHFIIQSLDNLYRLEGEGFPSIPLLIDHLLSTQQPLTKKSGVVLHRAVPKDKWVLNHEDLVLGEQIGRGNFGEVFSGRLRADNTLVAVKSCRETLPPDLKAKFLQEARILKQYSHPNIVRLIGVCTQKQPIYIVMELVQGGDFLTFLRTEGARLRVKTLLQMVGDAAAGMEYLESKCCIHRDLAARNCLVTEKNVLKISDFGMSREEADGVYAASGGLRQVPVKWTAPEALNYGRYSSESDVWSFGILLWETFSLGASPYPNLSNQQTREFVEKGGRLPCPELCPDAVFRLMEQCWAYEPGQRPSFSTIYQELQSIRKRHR

[8] = biological target: Fyn (UniProt P06241); experiment: as above
Chain of Fyn (P06241 whole entry, looked up): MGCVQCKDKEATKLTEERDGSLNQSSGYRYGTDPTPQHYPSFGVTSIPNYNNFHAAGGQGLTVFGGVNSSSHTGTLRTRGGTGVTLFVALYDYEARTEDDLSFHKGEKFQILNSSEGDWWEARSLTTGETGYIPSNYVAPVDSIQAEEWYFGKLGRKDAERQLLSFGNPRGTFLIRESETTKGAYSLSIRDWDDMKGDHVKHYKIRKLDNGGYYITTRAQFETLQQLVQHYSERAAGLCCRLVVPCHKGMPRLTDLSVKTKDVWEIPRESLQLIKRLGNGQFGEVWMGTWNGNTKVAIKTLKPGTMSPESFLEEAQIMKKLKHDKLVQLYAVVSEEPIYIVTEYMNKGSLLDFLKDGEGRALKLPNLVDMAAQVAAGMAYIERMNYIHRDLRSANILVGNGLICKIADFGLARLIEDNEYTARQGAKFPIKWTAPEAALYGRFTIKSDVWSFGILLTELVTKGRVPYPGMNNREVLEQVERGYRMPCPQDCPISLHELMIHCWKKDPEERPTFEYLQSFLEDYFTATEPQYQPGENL

[9] = biological target: Hck (UniProt P08631); experiment: as above
Chain of Hck (P08631 whole entry, looked up): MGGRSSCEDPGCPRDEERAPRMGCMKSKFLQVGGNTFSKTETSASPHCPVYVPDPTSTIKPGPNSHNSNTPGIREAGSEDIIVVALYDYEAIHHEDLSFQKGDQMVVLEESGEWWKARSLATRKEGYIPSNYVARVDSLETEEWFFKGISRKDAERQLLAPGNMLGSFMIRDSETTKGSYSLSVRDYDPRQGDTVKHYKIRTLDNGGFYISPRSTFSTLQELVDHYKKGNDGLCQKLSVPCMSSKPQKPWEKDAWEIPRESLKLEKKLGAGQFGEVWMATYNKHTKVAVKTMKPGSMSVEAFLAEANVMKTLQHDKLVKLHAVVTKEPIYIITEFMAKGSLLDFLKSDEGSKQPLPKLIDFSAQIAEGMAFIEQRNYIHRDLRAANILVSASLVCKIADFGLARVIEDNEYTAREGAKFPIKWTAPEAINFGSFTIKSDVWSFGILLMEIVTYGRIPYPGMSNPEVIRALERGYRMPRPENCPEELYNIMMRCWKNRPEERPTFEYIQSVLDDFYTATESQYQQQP

[10] = biological target: Jak2 (UniProt O60674); experiment: as above
Chain of Jak2 (O60674 whole entry, looked up): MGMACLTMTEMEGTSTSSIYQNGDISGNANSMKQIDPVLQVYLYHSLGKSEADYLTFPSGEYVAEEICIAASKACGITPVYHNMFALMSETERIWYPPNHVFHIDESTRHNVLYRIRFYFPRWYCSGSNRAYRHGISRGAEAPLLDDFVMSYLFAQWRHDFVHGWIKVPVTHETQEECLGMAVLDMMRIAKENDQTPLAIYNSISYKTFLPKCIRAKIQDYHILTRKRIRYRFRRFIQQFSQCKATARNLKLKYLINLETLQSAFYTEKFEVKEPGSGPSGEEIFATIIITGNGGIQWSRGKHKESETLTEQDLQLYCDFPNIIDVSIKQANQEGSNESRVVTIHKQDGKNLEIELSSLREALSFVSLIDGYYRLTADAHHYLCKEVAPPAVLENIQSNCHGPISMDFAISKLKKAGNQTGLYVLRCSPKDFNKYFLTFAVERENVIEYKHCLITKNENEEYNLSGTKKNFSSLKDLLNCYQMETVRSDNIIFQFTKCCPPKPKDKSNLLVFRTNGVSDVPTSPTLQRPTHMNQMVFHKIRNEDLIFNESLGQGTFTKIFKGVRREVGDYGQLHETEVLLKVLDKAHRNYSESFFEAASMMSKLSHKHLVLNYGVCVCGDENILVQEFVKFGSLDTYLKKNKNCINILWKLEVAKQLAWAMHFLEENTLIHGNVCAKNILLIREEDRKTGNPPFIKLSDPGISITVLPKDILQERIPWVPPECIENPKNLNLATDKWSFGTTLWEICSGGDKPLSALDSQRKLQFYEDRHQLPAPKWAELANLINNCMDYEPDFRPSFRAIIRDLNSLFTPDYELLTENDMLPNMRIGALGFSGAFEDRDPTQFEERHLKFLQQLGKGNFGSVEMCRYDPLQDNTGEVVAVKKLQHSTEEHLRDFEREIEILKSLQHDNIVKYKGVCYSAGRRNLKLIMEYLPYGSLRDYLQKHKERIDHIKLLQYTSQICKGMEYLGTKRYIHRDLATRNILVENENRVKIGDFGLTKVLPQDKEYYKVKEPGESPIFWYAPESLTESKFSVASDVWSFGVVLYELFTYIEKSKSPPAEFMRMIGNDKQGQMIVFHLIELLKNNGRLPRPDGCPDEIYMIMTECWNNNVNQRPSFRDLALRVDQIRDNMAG

[11] = biological target: MERTK (UniProt Q12866); experiment: as above
Chain of MERTK (Q12866 whole entry, looked up): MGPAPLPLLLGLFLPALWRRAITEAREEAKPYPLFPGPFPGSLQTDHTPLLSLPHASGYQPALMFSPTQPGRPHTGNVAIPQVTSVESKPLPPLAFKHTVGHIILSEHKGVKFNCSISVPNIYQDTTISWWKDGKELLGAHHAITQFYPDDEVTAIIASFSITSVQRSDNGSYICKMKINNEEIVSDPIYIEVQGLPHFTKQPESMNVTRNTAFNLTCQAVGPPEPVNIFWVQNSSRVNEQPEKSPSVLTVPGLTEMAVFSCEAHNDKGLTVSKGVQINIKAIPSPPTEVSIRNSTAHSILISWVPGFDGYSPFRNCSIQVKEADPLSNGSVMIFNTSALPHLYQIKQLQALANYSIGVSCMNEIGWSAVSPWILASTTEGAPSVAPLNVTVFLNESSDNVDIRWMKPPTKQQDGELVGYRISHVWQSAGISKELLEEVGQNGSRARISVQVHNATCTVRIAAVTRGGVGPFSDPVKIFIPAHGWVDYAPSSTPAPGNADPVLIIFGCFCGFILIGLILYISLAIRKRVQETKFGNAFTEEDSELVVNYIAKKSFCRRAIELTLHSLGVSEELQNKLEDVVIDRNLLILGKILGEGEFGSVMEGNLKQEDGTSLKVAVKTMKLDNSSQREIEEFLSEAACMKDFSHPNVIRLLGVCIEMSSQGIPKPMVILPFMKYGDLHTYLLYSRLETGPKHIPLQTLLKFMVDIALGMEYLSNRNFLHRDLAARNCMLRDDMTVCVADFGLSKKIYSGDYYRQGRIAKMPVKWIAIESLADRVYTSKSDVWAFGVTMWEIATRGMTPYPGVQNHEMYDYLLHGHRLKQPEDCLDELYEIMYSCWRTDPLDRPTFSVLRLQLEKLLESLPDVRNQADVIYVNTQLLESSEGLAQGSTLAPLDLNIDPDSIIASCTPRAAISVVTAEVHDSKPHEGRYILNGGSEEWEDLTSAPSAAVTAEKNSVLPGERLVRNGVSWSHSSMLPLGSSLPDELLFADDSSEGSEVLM

[12] = test system: c-Abl (mouse); experiment: as above
[13] = test system: c-Src; experiment: as above
[14] = biological target: Grb2 SH2 (UniProt P62993); experiment: SH2 binding enrichment of the phosphorylated peptide, bacterial display (enrichment ratio); higher = better substrate or ligand; peptides without Tyr show the background
[15] = biological target: SHP2-C SH2; experiment: as above
[16] = biological target: c-Src SH2; experiment: as above
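Throughout, for SH2 binding enrichment of the phosphorylated peptide, bacterial display: peptide library displayed on the E. coli surface as eCPX fusions, selected cells deep-sequenced, score is each peptide's frequency after selection divided by its frequency in the input.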
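Throughout, for phosphorylation enrichment, bacterial display: 11-residue human phosphosite peptides and single-mutation variants displayed on the E. coli surface, counted by deep sequencing, each peptide's frequency after selection divided by its frequency in the unselected input library; frequency after pTyr selection over input frequency; kinase dosed for 20-30% of maximal phosphorylation in three min.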

Chain of EPHB1 (P54762 whole entry, looked up): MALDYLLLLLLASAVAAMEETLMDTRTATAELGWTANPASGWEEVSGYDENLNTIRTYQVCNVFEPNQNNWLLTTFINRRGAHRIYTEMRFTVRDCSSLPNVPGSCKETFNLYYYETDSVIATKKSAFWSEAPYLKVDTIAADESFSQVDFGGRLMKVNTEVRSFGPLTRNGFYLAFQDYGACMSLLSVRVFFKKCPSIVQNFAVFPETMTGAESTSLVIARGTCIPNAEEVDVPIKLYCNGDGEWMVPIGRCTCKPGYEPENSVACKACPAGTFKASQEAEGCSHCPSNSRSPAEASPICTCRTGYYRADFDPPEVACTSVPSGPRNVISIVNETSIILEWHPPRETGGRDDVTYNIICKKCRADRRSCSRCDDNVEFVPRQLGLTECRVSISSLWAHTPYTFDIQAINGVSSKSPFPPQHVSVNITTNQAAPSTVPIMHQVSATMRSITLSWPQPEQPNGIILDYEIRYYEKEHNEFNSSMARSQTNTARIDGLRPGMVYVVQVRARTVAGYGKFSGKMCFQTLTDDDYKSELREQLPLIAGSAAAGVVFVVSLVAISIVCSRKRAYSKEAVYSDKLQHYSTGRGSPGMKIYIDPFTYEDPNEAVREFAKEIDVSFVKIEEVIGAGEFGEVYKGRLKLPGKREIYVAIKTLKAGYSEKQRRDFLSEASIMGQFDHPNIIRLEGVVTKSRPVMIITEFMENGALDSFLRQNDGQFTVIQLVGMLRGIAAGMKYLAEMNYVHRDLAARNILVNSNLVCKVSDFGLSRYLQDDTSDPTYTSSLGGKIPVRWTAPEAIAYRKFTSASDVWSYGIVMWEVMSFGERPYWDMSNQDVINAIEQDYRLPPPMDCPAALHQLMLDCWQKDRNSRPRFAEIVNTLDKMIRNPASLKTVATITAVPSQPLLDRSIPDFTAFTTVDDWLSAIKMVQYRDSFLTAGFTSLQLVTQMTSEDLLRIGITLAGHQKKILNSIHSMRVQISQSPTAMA

Sequence	SH2 binding enrichment [14]	SH2 binding enrichment [15]	SH2 binding enrichment [16]	phosphorylation enrichment [1]	phosphorylation enrichment [2]	phosphorylation enrichment [3]	phosphorylation enrichment [4]	phosphorylation enrichment [5]	phosphorylation enrichment [6]	phosphorylation enrichment [7]	phosphorylation enrichment [8]	phosphorylation enrichment [9]	phosphorylation enrichment [10]	phosphorylation enrichment [11]	phosphorylation enrichment [12]	phosphorylation enrichment [13]
DKTGEYPVPLI [ACADM_Y73]	0.666	0.697	0.399	0.809	0.528	0.575	0.468	0.687	0.442	0.957	0.407	0.49	0.856	0.392	0.55	0.436
DLAGRYYALKS [CKB_Y173]	0.824	0.722	1.47	0.572	0.406	0.419	1.04	0.85	0.597	0.878	0.538	0.726	1.58	1.65	0.577	0.571
DLAGRYYALRS [CKB_Y173_K177R]	0.775	0.9	1.87	0.729	0.352	0.439	0.963	0.811	0.477	0.649	0.484	0.681	1.65	2.19	0.544	0.487
DLDPNYVVSSR [CKM_Y125_L127V]	0.8	0.787	0.488	1.17	0.561	0.546	0.539	0.69	0.494	0.943	0.45	0.573	0.843	0.453	0.713	0.46
DLSEVYKPRRK [CCDC93_Y176]	0.414	0.481	0.315	0.761	0.513	0.454	0.352	0.575	0.521	0.623	0.579	0.407	0.574	0.634	0.59	0.573
DPADRYLIEQC [CDKL5_Y286_T288I]	0.88	0.67	0.544	1.19	0.626	0.682	0.587	0.777	0.511	1.32	0.51	0.556	1.06	0.467	0.903	0.518
DTDSSYCIPIA [GAB1_Y373_T377I]	0.88	0.441	0.551	2.21	0.829	0.721	0.586	0.706	0.483	1.05	0.467	0.413	0.925	1.16	0.82	0.435
EDSEYYKAFEE [CASQ2_Y179]	0.921	0.748	0.614	1.37	0.526	0.489	0.51	0.742	0.487	1.34	0.425	0.508	1.11	0.372	0.793	0.547
EEKKKYFDTKI [CASP5_Y103_YF]	0.821	0.698	0.462	0.928	0.429	0.445	0.447	0.519	0.457	0.954	0.374	0.559	0.665	0.332	0.657	0.402
EEVPLYESATT [DCC_Y809_G805E]	0.8	0.574	0.457	1.5	2.19	2.66	0.487	0.878	6.01	1.32	1.07	1.49	1.27	0.601	1.04	1.09
EGELRYMHSRV [ABCD1_Y281_K276E]	0.677	0.513	0.432	0.688	0.516	0.439	0.428	0.485	0.395	0.689	0.507	0.34	0.86	0.35	0.519	0.373
EGLRRYLENGK [HLA-A_Y195_W191G]	0.584	0.615	0.405	0.463	0.346	0.323	0.315	0.427	0.291	0.473	0.397	0.398	0.6	0.52	0.419	0.336
EKKKYYDAKIE [CASP5_Y104_T106A]	1.07	0.668	0.522	0.777	0.679	0.326	0.526	0.781	0.475	0.978	0.588	0.449	0.912	0.473	0.609	0.64
EKMWTYMPSAE [GRIA4_Y695_R697P]	0.92	0.444	0.524	0.768	0.504	0.474	0.448	0.623	0.396	0.841	0.377	0.509	0.652	0.363	0.538	0.329
EKNANYKEGTF [CLRN1_Y171_I168N_YF]	0.944	0.874	0.503	0.715	0.346	0.445	0.401	0.46	0.397	0.757	0.452	0.381	0.635	0.425	0.647	0.389
ELANLYHHVCM [BICD2_Y538]	0.673	0.597	0.783	1.17	0.666	0.708	1.57	1.49	1.77	1.05	0.869	2.17	1.23	1.24	0.982	1.47

Now from value to sequence, other results behind:

SH2 binding enrichment [14]	SH2 binding enrichment [15]	SH2 binding enrichment [16]	Sequence	phosphorylation enrichment [1]	phosphorylation enrichment [2]	phosphorylation enrichment [3]	phosphorylation enrichment [4]	phosphorylation enrichment [5]	phosphorylation enrichment [6]	phosphorylation enrichment [7]	phosphorylation enrichment [8]	phosphorylation enrichment [9]	phosphorylation enrichment [10]	phosphorylation enrichment [11]	phosphorylation enrichment [12]	phosphorylation enrichment [13]
0.67	0.496	2.69	DLDFTYIYPNI [PTEN_Y27_L25F]	4.17	0.83	0.945	4.18	3.11	0.501	1.23	2.5	1.37	2.36	1.22	0.953	1.47
1.29	0.962	3.33	DLDLTYIYPNI [PTEN_Y27]	3.91	1.71	0.961	3.8	2.61	0.424	0.871	2.84	1.37	1.57	2.41	0.612	1.4
0.978	0.839	0.643	DPFHVYIKNHV [KCNE3_Y95_R99H_YF]	1.22	0.671	0.735	0.469	0.918	0.585	1.32	0.382	0.519	1.2	0.354	0.915	0.403
0.844	0.716	0.517	DQGEQYKKELE [LMNA_Y259_V256G]	1.39	0.801	0.676	0.464	0.682	0.642	1.39	0.488	0.535	1.31	0.467	1.15	0.522
0.876	0.582	0.545	DRLASYLDKLR [KRT12_Y139_V143L]	0.921	0.494	0.567	0.458	0.597	0.479	0.894	0.459	0.472	0.713	0.45	0.868	0.498
0.846	0.614	0.465	DRQASYLDKVR [KRT16_Y131_L128Q]	0.536	0.39	0.419	0.39	0.424	0.324	0.662	0.418	0.399	0.609	0.388	0.494	0.385
0.944	0.548	0.487	DTFDPYLDIAL [USP36_Y268_V271I_YF]	1.25	0.73	0.589	0.783	1	1.08	1.52	0.692	0.577	1.39	0.527	0.727	0.832
0.869	0.668	0.498	DTKDDYNALSV [IL17RB_Y457]	1.08	0.495	0.625	0.544	0.718	0.483	1.07	0.599	0.546	0.916	0.426	0.679	0.443
0.874	0.578	0.44	DTMQTYNGNDE [TSPAN7_Y131_A127T]	0.976	0.589	0.632	0.695	0.817	0.557	1.17	0.491	0.642	0.976	0.382	0.758	0.502
0.684	0.745	0.568	EAAFVYAISSA [WNT4_Y113]	1.34	0.623	0.59	0.586	0.749	0.649	1.3	1.9	1.38	1.36	0.566	2.7	2.79
1.25	0.603	0.639	EEQKKYYNAMK [SCN5A_Y1494]	0.67	0.451	0.492	0.509	0.535	0.377	0.771	0.458	0.392	0.674	0.355	0.525	0.384
0.879	0.611	0.376	EFGSGYPNDPK [RNASEH2A_Y210_D205E_YF]	0.884	0.562	0.51	0.406	0.594	0.41	0.875	0.441	0.503	0.797	0.653	0.79	0.539
0.795	0.629	0.41	EHFSFYGMKAV [SLC15A2_Y61_R57H_YF]	0.868	0.498	0.601	0.441	0.615	0.48	1.04	0.473	0.846	0.901	0.417	0.624	0.579
0.929	0.699	0.58	EILLSYPRTGY [TGM1_Y365_L366P]	0.626	0.397	0.456	0.445	0.47	0.49	0.789	0.418	0.371	0.867	0.379	0.658	0.448
1.01	0.59	0.631	EKQVAYCPSGR [ROS1_Y2323_K2328R]	2.05	0.511	0.615	0.531	0.705	0.675	1.18	0.569	0.501	1.27	0.667	1.06	0.782
0.964	0.678	0.563	ELAVNYQEQAS [SLC9A9_Y591_I589V]	0.96	0.563	0.694	0.605	0.883	0.519	1.06	0.534	0.559	0.829	0.435	0.66	0.496
0.847	0.739	0.426	ENRKFYKDLKE [PURA_Y156_M157K_YF]	0.532	0.312	0.552	0.401	0.493	0.387	0.699	0.418	0.473	0.536	0.589	0.431	0.422
